Assay results as given in patent EP4714976A1.

Key:
[1] = biological target: extracellular domain of FGFR2c protein (Example 1) (UniProt P21802); assay: phage ELISA
[2] = biological target: extracellular domain of the FGFR2b protein (NP_075259.4) (UniProt P21802); assay: phage ELISA
Chain of extracellular domain of the FGFR2b protein (NP_075259.4) (P21802 other isoform, or with tags, fused parts or gaps): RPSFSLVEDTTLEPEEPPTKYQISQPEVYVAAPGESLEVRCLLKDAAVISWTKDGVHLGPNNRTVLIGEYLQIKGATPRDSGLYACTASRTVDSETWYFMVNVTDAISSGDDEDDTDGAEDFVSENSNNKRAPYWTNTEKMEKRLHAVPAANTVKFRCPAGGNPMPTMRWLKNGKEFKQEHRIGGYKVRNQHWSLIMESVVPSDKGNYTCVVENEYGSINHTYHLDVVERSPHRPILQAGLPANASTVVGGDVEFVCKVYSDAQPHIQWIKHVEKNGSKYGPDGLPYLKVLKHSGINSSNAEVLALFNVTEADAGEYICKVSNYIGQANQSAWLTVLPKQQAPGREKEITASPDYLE

Chain of extracellular domain of FGFR2c protein (Example 1) (P21802 22-377): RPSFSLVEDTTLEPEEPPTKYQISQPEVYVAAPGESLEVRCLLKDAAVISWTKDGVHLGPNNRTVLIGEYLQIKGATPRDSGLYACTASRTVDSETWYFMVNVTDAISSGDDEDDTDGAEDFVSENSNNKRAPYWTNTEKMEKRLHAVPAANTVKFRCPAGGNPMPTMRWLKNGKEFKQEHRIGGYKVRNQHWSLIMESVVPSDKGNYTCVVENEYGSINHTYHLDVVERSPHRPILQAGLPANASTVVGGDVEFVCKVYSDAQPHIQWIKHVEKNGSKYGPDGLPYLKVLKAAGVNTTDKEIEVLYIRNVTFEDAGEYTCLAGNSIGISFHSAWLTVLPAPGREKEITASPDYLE

## Negative control (Tables 1 and 2) (antibody)
[1]
  OD (450 nm) value: 0.045
[2]
  OD (450 nm) value: 0.024
